Molecular target: T1, KDR (VEGFR-2) expressed on the cell surface (human, UniProt P35968 20-1356)
T1 construct: whole, on cells; also called endogenous human KDR; KDR of HUVEC cells
Assay: FACS on HUVEC cells pretreated with 20 ng/ml VEGF, against IMC-1C11 IgG

T1 sequence (P35968 20-1356): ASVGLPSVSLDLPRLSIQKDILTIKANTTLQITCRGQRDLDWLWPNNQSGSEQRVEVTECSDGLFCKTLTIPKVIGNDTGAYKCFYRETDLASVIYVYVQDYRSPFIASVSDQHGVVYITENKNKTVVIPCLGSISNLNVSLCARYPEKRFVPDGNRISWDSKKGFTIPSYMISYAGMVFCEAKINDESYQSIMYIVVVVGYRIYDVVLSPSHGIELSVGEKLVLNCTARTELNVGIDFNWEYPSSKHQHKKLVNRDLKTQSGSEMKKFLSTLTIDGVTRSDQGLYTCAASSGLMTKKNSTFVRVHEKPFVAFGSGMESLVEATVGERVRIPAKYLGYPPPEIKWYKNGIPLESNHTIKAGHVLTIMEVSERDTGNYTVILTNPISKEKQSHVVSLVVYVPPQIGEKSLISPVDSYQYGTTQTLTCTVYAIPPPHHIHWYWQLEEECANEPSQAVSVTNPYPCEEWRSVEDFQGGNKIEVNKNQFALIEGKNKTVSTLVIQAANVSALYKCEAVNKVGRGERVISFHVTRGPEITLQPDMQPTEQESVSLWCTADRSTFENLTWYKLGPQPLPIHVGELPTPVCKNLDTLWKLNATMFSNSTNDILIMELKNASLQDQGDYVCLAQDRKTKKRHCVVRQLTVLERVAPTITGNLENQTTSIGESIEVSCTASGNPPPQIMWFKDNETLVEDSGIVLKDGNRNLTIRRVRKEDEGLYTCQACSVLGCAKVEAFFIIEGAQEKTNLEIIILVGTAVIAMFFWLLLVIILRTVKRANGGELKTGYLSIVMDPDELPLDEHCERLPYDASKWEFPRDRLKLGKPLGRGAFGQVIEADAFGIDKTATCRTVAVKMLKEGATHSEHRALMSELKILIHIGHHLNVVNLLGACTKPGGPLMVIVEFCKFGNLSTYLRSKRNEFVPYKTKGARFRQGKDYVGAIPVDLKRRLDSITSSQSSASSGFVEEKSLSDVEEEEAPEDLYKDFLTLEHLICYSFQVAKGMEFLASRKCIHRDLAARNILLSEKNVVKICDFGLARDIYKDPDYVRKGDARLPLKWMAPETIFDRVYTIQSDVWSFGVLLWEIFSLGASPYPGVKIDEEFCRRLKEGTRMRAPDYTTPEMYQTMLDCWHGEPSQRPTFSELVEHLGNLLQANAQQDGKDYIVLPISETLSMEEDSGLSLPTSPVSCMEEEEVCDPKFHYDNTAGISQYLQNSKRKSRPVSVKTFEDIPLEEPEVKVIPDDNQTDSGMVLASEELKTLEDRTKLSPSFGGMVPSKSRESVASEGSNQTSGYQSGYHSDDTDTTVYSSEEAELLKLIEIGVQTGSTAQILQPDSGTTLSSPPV

B1: 6A6 IgG (antibody, V domains shown)
VH: QMQLVQSGAEVKKPGASVKLSCKASGYTFSSYWMHWVRQAPGQRLEWMGEINPGNGHTNYNEKFKSRVTITVDKSASTAYMELSSLRSEDTAVYYCAKIWGPSLTSPFDYWGQGTLVTVSS
VL: SNFMLTQPPSVSVSPGKTARITCRGDNLGDVNVHWYQQRPGQAPVLVMYYDADRPSGIPERFSGSNSGNTATLTISGVEAGDEADYYCQVWDRTSEYVFGTGTKVTVLG
notes: Whole human IgG expressed in CHO DG44 cells; also called 6A6 antibody; anti-KDR 6A6 IgG
In the case of B1, the “fold higher KDR neutralizing ability than IMC-1C11 IgG” value is reported as ~2 fold.
